These are literature values, as cited in PMC3437676.

This series deals with Asp25 (UniProt position 515, KEALLDTGADD). Description: NMR. As to conditions: free model peptide.

Consider “HIV-1 protease model peptide, residues 20-30 (Human immunodeficiency virus 1)”, for which the pKa result is listed as “near 4.0”.
